Biological target: human alpha-thrombin (human, UniProt P00734;P00734 328-363;364-622)
Assay: centrifugation separation, free thrombin by fibrinogen-Au NP assay, Scatchard; graphene oxide carrier; 100 uM BSA; PBS (1X: 137 mM NaCl, 2.7 mM KCl, 10 mM Na2HPO4, 1.8 mM KH2PO4, pH 7.4) with 100 uM BSA, 30 min; 100 pM Supra-TBA15/29, thrombin 0-1 nM; temperature not stated

B1: Supra-TBA15/29-GO (sTBA15 + sTBA29 network on graphene oxide) (mixed)
DNA 1: AAAAAAAAAAAAAAAAAAAACGACCTGTACGACTCTTTTTTCAGGGTTGGTGTGGTTGGCTGATTTTTATCTTCACGAGCACT
DNA 2: GAGTCGTACAGGTCGTTTTTAGTCCGTGGTAGGGCAGGTTGGGGTGACTTTTTTAGTGCTCGTGAAGATAAAAAAAAAAAAAAAAAAAA
modifications: adsorbed on graphene oxide through A20 tails (40 ug/mL GO, 60 C)
Binder B1 has a Kd of 0.019 nM.
